Measured values published in the supplement of paper PMC10567573.

B1: DFFB (parent)
chain: TLVEAIKEQDGREVDWEYFYGLLF
B2: C2CD2L (parent)
chain: LTLKVLRSSSCGDTELLGQATLPV

Variants of: B1
Assay: protein stability index of a GFP-peptide fusion (GPS, HEK-293T) (PSI 1-6); higher = more stable
Conditions: c terminus: a fixed tail appended
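Also: lentivirally expressed fusions sorted by FACS into six bins by GFP to DsRed ratio, PSI derived from sequencing read proportions per bin multiplied by bin number.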

Protein stability index of substitutions, site by site:
Y20: C 1.92; D 2.36; E 1.67; R 2.67; Q 2.07; F 1.93; T 1.54; G 1.79; V 2.42; N 2.25; L 1.53; P 2.67; M 2.64; K 1.6; W 1.72; H 2.03; A 2.03; S 1.33; I 1.78
Y18: N 2.44; R 2.2; S 2.24; V 2.34; M 1.94; F 1.76; L 1.25; A 1.92; Q 2.18; W 1.76; T 1.9; G 1.71; D 2.16; H 3.81; I 2.06
V14: L 2.28; M 1.98; A 2.25; Q 1.7; G 2.12; F 1.51; E 2.37; W 2.12; R 1.65; Y 2.18; I 2.05; K 1.23; S 2.24; C 1.5; P 1.76; N 2.36; H 1.91; T 2.36; D 1.28
G11: T 2.28; V 2.92; M 2.13; Y 1.88; N 2.13; P 2.44; C 2.72; S 1.7; H 2.04; F 1.02; Q 2.04; E 2.13; A 1.84; K 1.61
R12: P 2.16; Q 2.41; E 2.44; I 1.56; T 1.92; A 1.32; V 2.07; W 1.72; H 2.2; S 1.84; N 2.42; K 2.41; G 1.74; M 2.18; Y 2.59; C 1.91; F 1.48
W16: F 1.93; S 2.84; G 2.44; T 3.12; P 2.44; L 1.66; V 2.61; C 2.46; H 1.58; Y 1.72; D 2.53; Q 2.17; M 2.05; K 1.87; N 2.63; I 1.93; R 2.3; A 2.06; E 2.19
L22: W 1.1; T 2.58; D 2.62; H 2.43; R 1.8; C 2.04; Y 1.86; I 1.97; A 2; S 2.49; Q 2.94; M 1.85; P 3.28; E 2.51; F 1.52; V 1.96
F19: K 3.22; A 1.9; Y 2.19; H 2.5; N 2.24; V 1.42; C 2.04; D 2.76; M 2.17; I 1.55; P 3.01; T 2.69; S 2.68; Q 3.44; L 2.1; W 2.39; R 2.31
D10: Y 1.92
G21: T 1.88; K 2.31; L 1.35; M 2.26; R 1.84; Y 1.53; V 1.08; Q 2.25; E 1.93; I 1.34; H 2.37; S 2; W 1.83; C 1.72; P 1.46; N 1.87
E13: H 1.84; S 1.76; T 1.98; N 1.79; D 2.1; L 1.57; G 3.05; R 1.81; A 1.74; F 1.85; M 2.02; I 2.36; K 3.03; P 1.67; V 2.07; C 1.22; Y 3.29; W 2.27
E17: F 1.6; L 2.18; I 1.48; M 1.78; G 2.38; D 2.52; Y 1.67; R 2.46; N 1.4; T 2.42; A 2.06; H 2.08; K 3.25; V 2.24; P 1.33; Q 2.21
D15: H 1.51; Q 1.78; I 2.15; R 1.75; A 1.44; W 1.88; M 1.69; G 1.9; L 1.59; Y 1.19; C 1.9; T 2.08; E 3.52; S 2.12; F 1.93; P 2.2; N 1.9
L23: D 2; E 2.19; M 2.12; A 1.86; K 2.03; I 2.24; V 1.92; W 2.21; P 2.18; H 2.07; F 2.26; R 2.5; Q 2.37; S 2.1; Y 2.86; C 1.6
F24: N 1.95; R 1.63; C 2.23; W 1.07; Q 2.27; P 2.53; T 2.42; S 2.52; E 2.22; D 2.21; I 1.93; L 1.7; H 2.2; K 1.79; A 1.69; Y 2.31

Variants of: B2
Assay: as above
Conditions: c terminus: a fixed tail appended

Protein stability index: each site, then its substitutions
T14: N 1.91
R7: C 3.71; S 1.13; D 2.02; K 3.05; V 1.85; N 1.19
A20: Q 2.09; T 1.79; H 1.23; P 1.96; M 2.92; L 2.33
L16: N 1.92; T 2.01; C 2.07
L1: F 1; T 2.04; I 2.76; Q 2.96; H 2.24
T21: R 3.3; P 2.22; K 2.08; H 2.21
C11: T 2.36; N 2.04; E 1.66; H 1.63; V 2.53
G18: D 2.28; H 1.43; P 2.11; N 2.11
L22: N 2.32; G 1.75; Q 1.28; V 2.75; A 2.46; Y 3.26; M 1.56; R 1.6
G12: T 1.82; E 1.88; P 1.82; I 2.27; L 2.82
L3: H 2.51; Q 2.87; I 4.28; F 2.31; S 2.74; G 2.16; T 2.71; E 3.55; P 3.51; R 2.63
L17: M 1.11; C 2.18; P 2.15; A 2.08; I 2.4; Q 2.1
K4: D 1.94; Y 3.27; C 2.5
D13: Q 2.24; S 2.38; C 3.28; P 2.02; W 3.58
S10: H 3; K 3.12; A 3.7; N 1.67; Q 1.78; T 3.38; M 5.18
L6: A 3.16; E 2.49; I 2.83; Y 3.33
Q19: T 1.59
S8: N 3.13; M 3.9; R 3.03; F 4.03
V5: C 1.76
E15: F 3.12; Q 2.47; D 1.41
V24: R 3.59; S 1.98; A 2.59; T 1.81
T2: P 2.8; G 1.93; W 2.99
